Entries after “also recorded” stand apart in the source; their conditions may differ.
System: P. acnes biofilms
Test: Screen of enzymes that degrade P. acnes biofilms (crystal violet)
Assay type: cell-based
Conditions: enzymes 0.01 mg/mL, 30° C., 30 mins
Procedure: FIG. 4. A screen to select enzymes that can degrade P. acnes biofilms. P. acnes was grown in polystyrene microtiter plates to stimulate biofilm production. Enzymes were added at 0.01 mg/mL to the wells and incubated at 30° C. for 30 mins. The degraded biofilm was washed away with phosphate buffered saline (PBS), and the residual biofilm in each well was quantified by staining with crystal violet and recording absorbance at 590 nm.
Without being bound by any scientific theory, we hypothesized that biofilms might present a significant barrier to phage killing of sessile P. acnes cells. […] In order to determine whether biofilm degradation would improve phage killing, a number of enzymes was screened to find a BDE specific for P. acnes. The screen comprised three classes of enzymes that might degrade types of materials that may be found in biofilms: DNA, polysaccharides, and proteins.

Molecule | P. acnes biofilm degradation (residual biofilm, absorbance at 590 nm)
proteinase K: protease screened as P. acnes biofilm degrading enzyme (protein, UniProt P06873 106-384, looked up) Proteinase K: AAQTNAPWGLARISSTSPGTSTYYYDESAGQGSCVYVIDTGIEASHPEFEGRAQMVKTYYYSSRDGNGHGTHCAGTVGSRTYGVAKKTQLFGVKVLDDNGSGQYSTIIAGMDFVASDKNNRNCPKGVVASLSLGGGYSSSVNSAAARLQSSGVMVAVAAGNNNADARNYSPASEPSVCTVGASDRYDRRSSFSNYGSVLDIFGPGTSILSTWIGGSTRSISGTSMATPHVAGLAAYLMTLGKTTAASACRYIADTANKGDLSNIPFGTVNLLAYNNYQA | good activity
dispersin: a glycoside hydrolase from Aggregatibacter actinomycetemcomitans, biofilm degrading enzyme (protein, Aggregatibacter actinomycetemcomitans, a glycoside hydrolase from Aggregatibacter actinomycetemcomitans, biofilm degrading enzyme) MNCCVKGNSIYPQKTSTKQTGLMLDIARHFYSPEVIKSFIDTISLSGGNFLHLHFSDHENYAIESHLLNQRAENAVQGKDGIYINPYTGKPFLSYRQLDDIKAYAKAKGIELIPELDSPNHMTAIFKLVQKDRGVKYLQGLKSRQVDDEIDITNADSITFMQSLMSEVIDIFGDTSQHFHIGGDEFGYSVESNHEFITYANKLSYFLEKKGLKTRMWNDGLIKNTFEQINPNIEITYWSYDGDTQDKNEAAERRDMRVSLPELLAKGFTVLNYNSYYLYIVPKASPTFSQDAAFAAKDVIKNWDLGVWDGRNTKNRVQNTHEIAGAALSIWGEDAKALKDETIQKNTKSLLEAVIHKTNGDE | best glycoside depolymerase amongst those tested; also recorded: best rates of biofilm degradation
